# Test: yeast display, Sf9 membrane polyspecificity reagent, FACS + sequencing; frameworks hold sequencing errors
# In short: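 In a synthetic yeast display library (Saccharomyces cerevisiae BJ5465), nanobody expression was induced with galactose for 36–48 hours. FACS gates were set low and high (top ~1%) using anti-HA fluorescence for expression and streptavidin fluorescence for binding of the Sf9 membrane reagent. Each polyreactivity label is drawn from the gate of origin.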
row,Sequence,polyreactivity (PSR sort gate)
1,QVQLVESGGGLVQAGGSLRLSCAASGRTFTTYTMGWYRQAPGKERELVASINYRGGRTYYADSVKGRFTISRDNAKNTVYLQMNSLKPEDTAVYYCAKRRYYRRRQYYHYDYWGQGTQVTVSS,high polyreactivity
2,QVQLVESGGGLVQAGGSLRLSCAASGRTFTVYAMGWYRLAPGKERELVAAISSGGITNYADSVKGRFTISRDNAKNTVYLQMNSLKPEDTAVYYCNTKSGKARYEFGYWGQGTQVTLSS,low polyreactivity
3,QVQLVESGGGLVQAGGSLRLSCAASGRTFTVYAMGWYRQAPGKEREFVAAITERGGSTYYADSVKGRFTISRDNAKNTVYLQMNSLKPEDTAVYYCAAVYYWRPGWYVRFDYWGQGTQVTVSS,low polyreactivity
4,QVQLVESGGGLVQAGGSLRLSCAASGRTFTVYAMGWYRQAPGKERELVAAISSGGITYYADSVKGRFTISRDNAKNTVYLQMNSLKPEDTAVYYCNTKSGKARYEFGYWGQGTQVTVSS,low polyreactivity
5,QVQLVESGGGLVQAGGSLRLSCAASGRTFTWNVMGWYRQAPGKERELVAAITTDDRTYADSVKGRFTISRDNAKNTVYLQMNILKPEDTAVYYCATVVAWSSRPVGEDYWGQGTQVTVSS,low polyreactivity
6,QVQLVESGGGLVQAGGSLRLSCAASGRTFTWYAMGWYRQAPGKEREFVAAISFSGGSTYYADSVKGRFTISRDYAKNTVFLQMNSLKPEDTAVYYCARPSGDAWEGPRMDYWGQGTQVTVSS,low polyreactivity
7,QVQLVESGGGLVQAGGSLRLSCAASGRTFTWYAMGWYRQAPGKERELVAAISFSGGSTYYADSVKGRFTISRDNAKNTVYLQMNSLKPEDTAVYYCARPSGDAWEGPRMDYWGQGTQVTVSS,low polyreactivity
8,QVQLVESGGGLVQAGGSLRLSCAASGRTFTYNTMGWYRQAPGKERELVAAISSRGGRTYYADSVKGRFTISRDNAKNTVYLQMHSLKAEDTAVYYCAVYGYYSLSHWDYDYWAQGTQVTVSS,high polyreactivity
9,QVQLVESGGGLVQAGGSLRLSCAASGRTFTYNVMGWYRQAPGKERELVAAITSGGSTYYADSVKGRFTISRDNAKNTVYLQMNSLKPEDTAVYYGAARGYSYKWDNRYDYWGQGTQVTVSS,high polyreactivity
10,QVQLVESGGGLVQAGGSLRLSCAASGRTFTYYAMGWSRQAPGKERELVAGISSGGGSTYYADSVKGRFTISRDNAKNSVYFQMNILNPEDTAVYYCATAKRQGCYSEYDYWGQGTQVTVSS,high polyreactivity
11,QVQLVESGGGLVQAGGSLRLSCAASGRTFTYYAMGWYRPAPGKERELVARITTDGSSTYYADSVKGRFTISRDNAKNTVYLQMNSLKPEDTAVYYCAADFQYAIHTDMDYWGQGTQVTVSS,high polyreactivity
12,QVQLVESGGGLVQAGGSLRLSCAASGRTFTYYAMGWYRQAPGKEREFVASISLSGGRTYYADSVKGRFTISRDNAKNTVYLQMNSLKPEDTAVYYCNAYYPRVHRSDYWGQGTQVTVSS,low polyreactivity
13,QVQLVESGGGLVQAGGSLRLSCAASGRTFTYYGMGWYRQAPGKERELVAAISGGGDTNYADSVKGRFTISRDNAKNTVYLQMNSLKPEDTAGYYCAAKRRYYWDYWFYEYDYWGQGTQVTVSS,low polyreactivity
14,QVQLVESGGGLVQAGGSLRLSCAASGRTFVANAMGWYRQAPGKERELVAAISSSGGSTYYADSVKGRFTISRDNAKNTVYLQMNSLKPEDTAVYYCNRVGVYYRLYPYYYWGQGTQVTVSS,high polyreactivity
15,QVQLVESGGGLVQAGGSLRLSCAASGRTFVANDMAWYTHAPGKERELFAAISYSGGSTYYADSVKGRFTISRDNAKNTVYLQMNSLKPEDTEVYYCNAYYYGGVRKQHGYWGQVTQVTVSS,low polyreactivity
16,QVQLVESGGGLVQAGGSLRLSCAASGRTFVDYDMGWYRQAPGKERELVADINSGGSTYYADSVKGRFTISRDNAKNTVYLQMNSLKPEDTAVYYCAARPYYWGQGTQVTVSS,high polyreactivity
17,QVQLVESGGGLVQAGGSLRLSCAASGRTFVGNAMGWYRQAPGKERELVAAISGRGGSTKYADSVKGRFTISRDYAKNTVYLQMNSLKPEYTAVYYCNAPRNYYKNRAYEYWGQGTKVTVSS,high polyreactivity
18,QVQLVESGGGLVQAGGSLRLSCAASGRTFVGYAMGWYRQAPGKERELVAAISRTGGSTYYADSVKGRFTISRDNAKNTVYLQMNSLKPEDTAVYYCAASPKRVLRESGDYWGQGTQVTVSS,high polyreactivity
19,QVQLVESGGGLVQAGGSLRLSCAASGRTFVGYTMGWYRQAPGKERELVAAIDLSDGSTSYADSVKGRFTISRDNAKNTVYFQMNSLKPEDTAVYYCAKTWANVYAGAHDYWGQGTQVTVSS,low polyreactivity
20,QVQLVESGGGLVQAGGSLRLSCAASGRTFVGYTMGWYRQAPGKERELVAAIDLSDGSTSYADSVKGRFTISRDNAKNTVYLQMNSLIPEDTAVYYCAKTWANVYAGAHDYWGLGTQVTVSS,low polyreactivity
21,QVQLVESGGGLVQAGGSLRLSCAASGRTFVHYTMGWYRQAPGKERELVATISTSGGSTSYADSVKGRFTISRDNAKNTVYLQMNSLIPEDTAVYYCAARWYFPDRVKYDYWGQGTQVTVSS,low polyreactivity
22,QVQLVESGGGLVQAGGSLRLSCAASGRTFVIYAMGWYRQAPGKEREFVAAISRSGGSTYYADSVKGRFTISRDNAKNTVYLQMNSLKPEDTAVYYCNTRTPYWVKSDYWGQGTQVTVSS,low polyreactivity

row,Sequence,polyreactivity (PSR sort gate)
1,QVQLVESGGGLVQAGGSLRLSCAASGRTFVIYAMGWYRQAPGKEREFVPAISKGGGSTYYADSVKGRFTISRDNAKNTVYLQMNSLKPEDTAVYYCAAGYGTYYQSSRFDYWGQGTQVTVSS,high polyreactivity
2,QVQLVESGGGLVQAGGSLRLSCAASGRTFVLNAMGWYRQAPGKERELVAAITLGGGSTYADSVKGRLTISRDNAKNTVYLQMNSLKPEDTEVYYCNKASGVFYGHLDYWGQGTQVTVSS,low polyreactivity
3,QVQLVESGGGLVQAGGSLRLSCAASGRTFVLYAMGWYRQAPGKERELVASITSGGSTNYADSVKGRFTISRDNAKNTVYLQMNSLKPEDTAVYYCNADLDVYLWFIFTVYQDDYDYWGQGTQVTVSS,high polyreactivity
4,QVQLVESGGGLVQAGGSLRLSCAASGRTFVPYAMGWYRQAPGKERELVAAINSGGSTYYADSVKGRFTISRDNAKNTVYLQMNSLKPEDTAVYYCAAEYWNSRFSYAYGYWGQGTQVTVSS,high polyreactivity
5,QVQLVESGGGLVQAGGSLRLSCAASGRTFVPYAMGWYRQAPGKERELVAAISYSGDSTYYADSVKGRFTISRDNAKNTVYLQMNSLKPEDTAVYYCAARGGNPFYYWGQGTQVTVSS,low polyreactivity
6,QVQLVESGGGLVQAGGSLRLSCAASGRTFVRNAMGWYRQAPGKERELVAAINSGGSTNYADSLKGRFTISRDNPKNTVYLQMNSLKPEDTAVYYCNAPRQHVGNGNYWGQGTQVTVSS,low polyreactivity
7,QVQLVESGGGLVQAGGSLRLSCAASGRTFVRYAMGWYRQAPGKERELVAAISTSGGNTYYADSVKGRFTISRDNAKNTVYLQMNSLKPEDTAVYYCAKDRGPNAKFDYWGQGTQVTVSS,low polyreactivity
8,QVQLVESGGGLVQAGGSLRLSCAASGRTFVRYAMGWYRQAPGKERELVAAITSGGSTYADSVKGRFTISRDNAKNTVYLQMNSLKPEDTAVYYCAARRYPSYGSWGQGTQVTVSS,low polyreactivity
9,QVQLVESGGGLVQAGGSLRLSCAASGRTFVRYAMGWYRQAPGKERELVARITSRGTSTYYADSVKGRFTISRDNAKNTVYLQMNSLKPEDTAVYYCNKVRTFRDKSRYDYWGQGTQVTVSS,low polyreactivity
10,QVQLVESGGGLVQAGGSLRLSCAASGRTFVRYAMGWYRQAPGKERELVARITSSGGSTYYADSVKGRFTISRDNAKNTVYLQMNSLKPEDTAVYYCAKDTAFYRFQGHYGYWGQGTQVTVSS,high polyreactivity
11,QVQLVESGGGLVQAGGSLRLSCAASGRTFVSYAMGWYRQAPGKERELVAAIRWGTGSRTYYADSVKGRFTISRDNAKNTVYLQMNSLKPEDTAVYYCAKTDWYPYGYWGQGTQVTVSS,low polyreactivity
12,QVQLVESGGGLVQAGGSLRLSCAASGRTFVSYAMGWYRQAPGKERELVAAIRYRGGSTYYADSVKGRFTISRDNAMNTVYLQMNSLKPEDTAVYYCAANQGRYNIYSNYDYWGQGTQVTVSS,high polyreactivity
13,QVQLVESGGGLVQAGGSLRLSCAASGRTFVTNTMGWYRQAPGKEREFVAAITWNGGGTYYADSVKGRFTISRDNAKNTVYLQMNSLKPEDTAVYYCAARGRTDSYWRFYHWGQGTQVTVSS,high polyreactivity
14,QVQLVESGGGLVQAGGSLRLSCAASGRTFVTYAMGWYRQAPGKERELVAGISRRGGRTYYADSVKGRFTISRDNAKNTVYLQMNSLKPEDTAVYYCAAYDRITRYDYWGQGTQVTVSS,high polyreactivity
15,QVQLVESGGGLVQAGGSLRLSCAASGRTFVTYGMGWYRQAPGKERQLVAAISKRGSRTYYADSVKGRFTISRDNAKNTVYLQMNSLKPEDTAVYYCNAETYRTTYDYWGQGTQVTVSS,high polyreactivity
16,QVQLVESGGGLVQAGGSLRLSCAASGRTFVVNAMGGYRQAPGKERELVAAITYSGDTTYYADSVKGRFTISRDNAKNTVYLQMNSLKPEDTAVYYCAADTGVVSPPAGLLIGPFDSWGQGTQVTVSS,low polyreactivity
17,QVQLVESGGGLVQAGGSLRLSCAASGRTFVWYAMGWYRHAPGKERELVAAISRSGGSTYYADSVKGRFTISRDNAKNTVYLQMNSLKPEDTAVYYCNAQWYVYDYYEFDYWGQGTQVTVSS,high polyreactivity
18,QVQLVESGGGLVQAGGSLRLSCAASGRTFVWYDMGWYRQAPGKERELVAAITKRGTSTYYADSVKGRFTISRDNGKNTVYLQMNRLKPEDTAVYYCAVEYIYWFHSRSSYIYDYWGQGTQVTVSS,low polyreactivity
19,QVQLVESGGGLVQAGGSLRLSCAASGRTFVYNAMGWYRQAPGKERELVAAISSDGASTYYADSVKGRFTISRDNAKNTVYLQMNSLKPEDTAVYYCAADFSYYSYEHYYWGQGTKVTVSS,low polyreactivity
20,QVQLVESGGGLVQAGGSLRLSCAASGRTFVYNAMGWYRQAPGKERELVAAISSDGASTYYADSVKGRFTISRDNAKNTVYLQMNSLKPEDTAVYYCAADFSYYSYEHYYWVQGTQVTVSS,low polyreactivity
21,QVQLVESGGGLVQAGGSLRLSCAASGRTFVYNAMGWYRQAPGKERELVAAITWNGGSTYYADSVKGRFTISRDNAKNTVYLQMNSLKPEDTAVYYCNRDVRYVGPSGFDYWGQGTQVTVSS,high polyreactivity

# Reference: the nanobody polyreactivity screen of Harvey et al. (2022)
